± gives the standard error. For some assays here: Variants at the floor of the assay were thinned out.
B1: glmS ribozyme (parent)
chain: AUAAAAGCGCCAGAACUACAGAAAUGUAGUUGACGAGGAGGAGGUUUAUCGAAUUUUCGGCGGAUGCCUCCAAA

What was measured:
Conditions in all cases: with glucosamine-6-phosphate
[1] = variants of: B1; test: kcat; higher = faster cleavage; RNA array
Summary of the method: (§1)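 On sequenced MiSeq chips, barcoded ribozyme variants were made in situ by E. coli RNA polymerase and followed at 37 °C through a hybridised Cy3 probe. Glucosamine-6-phosphate was flowed in at 40 μM to 10 mM in HEPES/KCl/Mg(OAc)2 buffer. Exponential fits to normalised per-tile medians gave kobs, and weighted Michaelis–Menten fits gave kcat and KM.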

[2] = variants of: B1; test: self-cleavage kobs at 640 uM GlcN6P; higher = faster cleavage; RNA array
Summary of the method: as §1

[3] = variants of: B1; test: self-cleavage kobs at 2500 uM GlcN6P; higher = faster cleavage; RNA array
Summary of the method: as §1

[4] = variants of: B1; test: self-cleavage kobs at 10000 uM GlcN6P; higher = faster cleavage; RNA array
Summary of the method: as §1

[5] = variants of: B1; test: self-cleavage kobs at 160 uM GlcN6P; higher = faster cleavage; RNA array
Summary of the method: as §1

[6] = variants of: B1; test: self-cleavage kobs at 40 uM GlcN6P; higher = faster cleavage; RNA array
Summary of the method: as §1

[7] = variants of: B1; test: KM; higher = weaker cofactor use; RNA array
Summary of the method: as §1

Variant	kcat [1] [s⁻¹]	self-cleavage kobs at 2500 uM GlcN6P [3] [s⁻¹]	self-cleavage kobs at 10000 uM GlcN6P [4] [s⁻¹]	further results
G60A G66C	< 1e-05	< 1e-05	< 1e-05	self-cleavage kobs at 640 uM GlcN6P [2]: < 1e-05 s⁻¹
C61G G62C A64G U65A G66U C67G	1.06e-05 ± 1.8e-06		< 1e-05	self-cleavage kobs at 640 uM GlcN6P [2]: < 1e-05 s⁻¹
G59A C70A	1.52e-05 ± 3.7e-06			
G60A C67G	1.56e-05 ± 2e-06			
U56G G59U	2.54e-05 ± 5.7e-06	2.9e-05 ± 1.4e-05	2.16e-05 ± 1e-05	self-cleavage kobs at 160 uM GlcN6P [5]: < 1e-05 s⁻¹
U57A U65G	4.49e-05 ± 7.1e-06	4.6e-05 ± 1.3e-05	3.88e-05 ± 1.2e-05	self-cleavage kobs at 40 uM GlcN6P [6]: < 1e-05 s⁻¹
C58A C61G	1.62e-05 ± 5.8e-06			
C58A C61U	< 1e-05			
C58A C61A	1.11e-05 ± 1.1e-06		< 1e-05	
G59C C67G	< 1e-05			
C58A C71G	3.85e-05 ± 8.3e-06	4.63e-05 ± 1.1e-05	2.57e-05 ± 1.2e-05	self-cleavage kobs at 40 uM GlcN6P [6]: < 1e-05 s⁻¹; self-cleavage kobs at 640 uM GlcN6P [2]: 3.58e-05 ± 1.5e-05 s⁻¹
G62A C68U	< 1e-05		< 1e-05	
G60C C71A	< 1e-05			self-cleavage kobs at 40 uM GlcN6P [6]: < 1e-05 s⁻¹
G59U C70A	1.64e-05 ± 5.5e-06			
C58A C70G	5.06e-05 ± 4.7e-06	5.19e-05 ± 1.1e-05		KM [7]: 91.6 ± 44 µM; self-cleavage kobs at 160 uM GlcN6P [5]: 3.59e-05 ± 1.2e-05 s⁻¹; self-cleavage kobs at 640 uM GlcN6P [2]: 3.65e-05 ± 1.3e-05 s⁻¹
G60A C70A	1.05e-05 ± 2.5e-06			self-cleavage kobs at 40 uM GlcN6P [6]: < 1e-05 s⁻¹
C58G G63C	< 1e-05	< 1e-05		self-cleavage kobs at 40 uM GlcN6P [6]: < 1e-05 s⁻¹
C58G G63A	< 1e-05			self-cleavage kobs at 40 uM GlcN6P [6]: < 1e-05 s⁻¹
G59A U69G	1.93e-05 ± 4.9e-06			
G60A	2.13e-05 ± 1.7e-06	2.19e-05 ± 2.6e-06	1.98e-05 ± 1.2e-06	self-cleavage kobs at 40 uM GlcN6P [6]: < 1e-05 s⁻¹; self-cleavage kobs at 640 uM GlcN6P [2]: < 1e-05 s⁻¹
U57A C61G G62C A64G U65A G66U C67G U69C	3.85e-05 ± 9.7e-06	4.83e-05 ± 2e-05		
A64C C68U	< 1e-05		< 1e-05	self-cleavage kobs at 40 uM GlcN6P [6]: < 1e-05 s⁻¹; self-cleavage kobs at 160 uM GlcN6P [5]: < 1e-05 s⁻¹
C61G U69A	2.83e-05 ± 3.9e-06			
C58A C61A C70U	1.3e-05 ± 1.9e-06			
C58G U65G	< 1e-05			
C58U C68U	6.04e-05 ± 7.7e-06	2.71e-05 ± 8.5e-06	4.92e-05 ± 7.3e-06	KM [7]: 2460 ± 1000 µM
C61G C68U	< 1e-05			

Variant	kcat [1] [s⁻¹]	self-cleavage kobs at 2500 uM GlcN6P [3] [s⁻¹]	self-cleavage kobs at 10000 uM GlcN6P [4] [s⁻¹]	further results
U57G C70U	7.01e-05 ± 1.4e-05	4.91e-05 ± 8.8e-06	8.12e-05 ± 1.3e-05	self-cleavage kobs at 640 uM GlcN6P [2]: 5.96e-05 ± 1.8e-05 s⁻¹
U57G C70A	4.31e-05 ± 1.5e-05	6.82e-05 ± 1.9e-05		self-cleavage kobs at 160 uM GlcN6P [5]: 3.33e-05 ± 1.3e-05 s⁻¹; self-cleavage kobs at 640 uM GlcN6P [2]: 4.1e-05 ± 1.7e-05 s⁻¹
C61U	1.4e-05 ± 3.1e-06	2.23e-05 ± 2.6e-06	1.19e-05 ± 1.4e-06	self-cleavage kobs at 40 uM GlcN6P [6]: < 1e-05 s⁻¹
C61A	< 1e-05			
G59U C71U	5.45e-05 ± 7.2e-06	2.79e-05 ± 1.3e-05	4.88e-05 ± 8.4e-06	
G59U C71A	1.28e-05 ± 7.6e-07			
G63A C71G	2.96e-05 ± 9.4e-06			self-cleavage kobs at 40 uM GlcN6P [6]: < 1e-05 s⁻¹
G62A	< 1e-05		< 1e-05	self-cleavage kobs at 40 uM GlcN6P [6]: < 1e-05 s⁻¹
C58G G66C	2.6e-05 ± 1.4e-06			KM [7]: 2200 ± 540 µM; self-cleavage kobs at 640 uM GlcN6P [2]: < 1e-05 s⁻¹
C58G G66A	5.59e-05 ± 5.7e-06	5.32e-05 ± 1.5e-05	5.1e-05 ± 7.9e-06	
G63C C70U	< 1e-05	< 1e-05		self-cleavage kobs at 40 uM GlcN6P [6]: < 1e-05 s⁻¹
G63C C70A	1.89e-05 ± 5.1e-06			
U57G C71G	2.02e-05 ± 3.8e-06			
C61U G63C	< 1e-05	< 1e-05		
C61A A64U C71G	1.67e-05 ± 3.2e-06			
G59U C68A	2.28e-05 ± 4.9e-06			
U57A C67U	0.000139 ± 3.1e-05	5.36e-05 ± 9.6e-06	0.000108 ± 1e-05	self-cleavage kobs at 640 uM GlcN6P [2]: 5.03e-05 ± 1.7e-05 s⁻¹
U57A C67A	0.000119 ± 3.3e-05	4.66e-05 ± 7.6e-06	9.37e-05 ± 1.1e-05	self-cleavage kobs at 640 uM GlcN6P [2]: 4.64e-05 ± 1.4e-05 s⁻¹
U57A C58A	4.9e-05 ± 5.6e-06	4.44e-05 ± 1.1e-05	4.41e-05 ± 9.8e-06	
C58U C71A	7.75e-05 ± 1.6e-05		2.61e-05 ± 1.2e-05	
C58U C71G	< 1e-05			
U57A A64U	< 1e-05		< 1e-05	self-cleavage kobs at 40 uM GlcN6P [6]: < 1e-05 s⁻¹
U57C C67A	3.95e-05 ± 1.7e-06	3.6e-05 ± 1.1e-05	3.97e-05 ± 1.2e-05	KM [7]: 157 ± 71 µM; self-cleavage kobs at 640 uM GlcN6P [2]: 3.33e-05 ± 1.5e-05 s⁻¹
U57C C68G	1.42e-05 ± 2.7e-06			
U57A G63A	< 1e-05		< 1e-05	self-cleavage kobs at 160 uM GlcN6P [5]: < 1e-05 s⁻¹
C61G C70G	1.85e-05 ± 5.6e-06			
